For data set [1], the target named is PrgE (Enterococcus faecalis (plasmid pCF10)). The data set can be described thus: SEC-MALS; 60 μM PrgE, Superdex 200 Increase 10/300 GL, 20 mM Hepes pH 7.5, 300 mM NaCl. On the technique in general: In gel filtration, larger molecules generally elute earlier.
Data set [2] deals with T1, PrgE WT (Enterococcus faecalis (plasmid pCF10), UniProt D1LHE9 1-144).
T1 sequence: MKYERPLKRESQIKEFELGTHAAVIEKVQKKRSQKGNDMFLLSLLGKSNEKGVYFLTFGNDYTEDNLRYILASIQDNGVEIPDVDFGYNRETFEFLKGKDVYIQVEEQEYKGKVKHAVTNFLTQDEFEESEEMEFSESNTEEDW
The data set can be described thus: fluorescence anisotropy; 100 mM NaCl; 20 mM Hepes pH 7.5, 50 or 100 mM NaCl, 10 nM FITC-DNA, 0-20 uM protein, 30 min at RT. The following applies: protein: recombinant, tags: C-terminal 10xHis removed with 3C (PreScission) protease, chain copies: 3. (In general: In fluorescence polarisation assays a small probe gives low polarisation when free and higher when bound to something large.)

The target in another data set is ΔN-PrgE (Enterococcus faecalis (plasmid pCF10), UniProt D1LHE9 13-144, del1-12). The data set can be described thus: fluorescence anisotropy; 50 mM NaCl; 20 mM Hepes pH 7.5, 50 or 100 mM NaCl, 10 nM FITC-DNA, 0-20 uM protein, 30 min at RT. The following applies: protein: recombinant, tags: C-terminal 10xHis removed with 3C (PreScission) protease.
The target of data set [3] is T1, PrgE WT. The data set is described as above. The following applies: protein: recombinant, tags: C-terminal 10xHis removed with 3C (PreScission) protease, chain copies: 3.
Data set [4] concerns the target T1, PrgE WT. The experiment in a line: fluorescence anisotropy; 50 mM NaCl; quadratic fit (Hill coefficient ca 1.5 in Hill fit); 20 mM Hepes pH 7.5, 50 or 100 mM NaCl, 10 nM FITC-DNA, 0-20 uM protein, 30 min at RT. The following applies: protein: recombinant; tags: C-terminal 10xHis removed with 3C (PreScission) protease; chain copies: 3; label: 5' FITC; single strand.

Data set [5] concerns the target T1, PrgE WT. The data set can be described thus: X-ray crystal structure; 15% PEG 400, 50 mM MES pH 6.5, 80 mM Mg acetate, 15 mM MgCl2; 5 nt per subunit; 20 mM Hepes pH 7.5, 50 or 100 mM NaCl, 10 nM FITC-DNA, 0-20 uM protein, 30 min at RT. The following applies: protein: recombinant; tags: C-terminal 10xHis removed with 3C (PreScission) protease; chain copies: 3; single strand.

The mark [6] stands for this setting: label: 5' FITC on strand 1, blunt.

Regarding PrgE (natural protein), in data set [1], the stoichiometry N was 3.

Turning to CAGTGACAGTCTCCACGGTGAAGCAGTCGT (ssDNA) [30-mer ssDNA], the Kd with PrgE WT [2] (label: 5' FITC, single strand) worked out at 1.84 ± 0.15 µM; with ΔN-PrgE (label: 5' FITC, single strand), 3.85 ± 0.49 µM; with PrgE WT [3] (label: 5' FITC, single strand), 1.02 ± 0.02 µM.

B1: 60-mer ssDNA (ssDNA)
DNA: CAGTGACAGTCTCCACGGTGAAGCAGTCGTACCTCTTGACGCATGAATAGATATATGTTA
Turning to B1, the Kd with PrgE WT [2] (label: 5' FITC, single strand) amounted to 0.37 ± 0.01 µM; in the data set with ΔN-PrgE (label: 5' FITC, single strand) it was 4.49 ± 0.48 µM; in the data set with PrgE WT [4], 0.33 ± 0.02 µM.

B2: 60-mer dsDNA (dsDNA)
DNA 1: B1 DNA
DNA 2: TAACATATATCTATTCATGCGTCAAGAGGTACGACTGCTTCACCGTGGAGACTGTCACTG
Consider B2, for which the results for the Kd in the data set with PrgE WT [2] (setting [6]), with ΔN-PrgE (setting [6]) and with PrgE WT [3] (setting [6]) were 0.95 ± 0.03 µM, 5.56 ± 0.19 µM and 0.5 ± 0.14 µM, respectively.

B3: 30-mer dsDNA (dsDNA)
DNA 1: CAGTGACAGTCTCCACGGTGAAGCAGTCGT
DNA 2: ACGACTGCTTCACCGTGGAGACTGTCACTG
B3: the Kd with PrgE WT [2] (setting [6]) was 3.36 ± 0.28 µM; with ΔN-PrgE (setting [6]) it was 4.39 ± 0.24 µM; with PrgE WT [3] (setting [6]), 1.96 ± 0.26 µM.

B4: Poly-A 60-mer (ssDNA)
DNA: AAAAAAAAAAAAAAAAAAAAAAAAAAAAAAAAAAAAAAAAAAAAAAAAAAAAAAAAAAAA
Turning to B4, the binding result with PrgE WT [5] is listed as “binds”.

What is called stoichiometry N is a count of units in the complex or per binding partner. In general, Kd refers to the free concentration of one partner at which half of the binding sites on the other are occupied at equilibrium, for simple one-to-one binding.

Source of the values: paper PMC11137577, “Unusual OB-fold protein PrgE and its role in conjugation”.
